Assay results reported in paper PMC2172020.

Biological target: HIS-CLIP-170 (rat) (UniProt Q9JK25)
Experiment: scanning force microscopy

## HIS-CLIP-170 (from UniProt Q9JK25 1-1320) (natural protein)
  stoichiometry N: 2
